In article PMC11168103:

Target: PHOX2B-20A (UniProt Q99453 98-314)
Assay: NMR

Chain of PHOX2B-20A (Q99453 98-314): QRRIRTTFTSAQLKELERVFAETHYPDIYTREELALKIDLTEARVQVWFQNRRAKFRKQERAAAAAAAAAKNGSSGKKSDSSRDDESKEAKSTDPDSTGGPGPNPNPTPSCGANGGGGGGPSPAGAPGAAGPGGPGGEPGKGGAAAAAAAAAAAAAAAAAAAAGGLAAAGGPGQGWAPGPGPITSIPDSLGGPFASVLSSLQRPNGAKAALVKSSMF

B1: ATTA2 (dsDNA)
DNA 1: TAGTGTGATTGAATTAAAGGGCAGG
DNA 2: CCTGCCCTTTAATTCAATCACACTA
binding result: binds
